± gives the uncertainty stated by the source.
Experiment: self-splicing fitness, log relative to wild type (ln ratio); higher = more splicing; Tetrahymena group I intron in knt gene, E. coli kanamycin selection, DiMSum; sequences stand for … in CUCUCU…GGAGGGAAAAGUUAUCAGGCAUGCACCUGGUAGCUAGUCUUUAAACCAAUAGAUUGCAUCGGUUUAAAAGGCAAGACCGUCAAAUUGCGGGAAAGGGGUCAACAGCCGUUCAGUACCAAGUCUCAGGGGAAACUUUGAGAUGGCCUUGCAAAGGGUAUGGUAAUAAGCUGACGGACAUGGUCCUAACCACGCAGCCAAGUCCUAAGUCAACAGAUCUUCUGUUGAUAUGGAUGCAGUUCACAGACUAAAUGUCGGUCGGGGAAGAUGUAUUCUUCUCAUAAGAUAUAGUCGGACCUCUCCUUAAUGGGAGCUAGCGGAUGAAGUGAUGCAACACUGGAGCCGCUGGGAACUAAUUUGUAUGCGAAAGUAUAUUGAUUAGUUUUGGAGUACUCGUGGUCG
Summary of the method: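 DiMSum derived fitness as the error-weighted combination of fold changes across replicates, kanamycin versus no kanamycin, normalised to wild type. E. coli BL21(DE3) held the library, which randomised all eight P1ex-region intron nucleotides within the knt kanamycin-resistance gene on pET-22b(+). Six replicate transformations grew overnight at 37°C or 30°C on LB agar with or without 25 μg/mL kanamycin, also containing 100 μg/mL carbenicillin, 50 μM IPTG and 0.2% rhamnose, and pooled colonies were amplicon-sequenced on an Illumina HiSeq 2500.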

| Sequence | self-splicing fitness (ln) (30 °C) | self-splicing fitness (ln) (37 °C) |
| --- | --- | --- |
| UUGGAGCAAUAUUACGAAGA | -2.83 ± 0.41 | -2.53 ± 0.49 |
| UUGGAGCAAUAUUACGACGC | – | -2.47 ± 0.33 |
| UUGGAGCAAUAUUACGAGAC | – | -2.25 ± 0.5 |
| UUGGAGCAAUAUUACGAGAU | -2.83 ± 0.29 | -2.36 ± 0.36 |
| UUGGAGCAAUAUUACGAGGA | -3.13 ± 0.48 | -1.56 ± 0.27 |
| UUGGAGCAAUAUUACGAUGC | -1.76 ± 0.28 | – |
| UUGGAGCAAUAUUACGCAGA | -2.13 ± 0.33 | -1.13 ± 0.16 |
| UUGGAGCAAUAUUACGCAUG | -3.5 ± 0.26 | -0.58 ± 0.13 |
| UUGGAGCAAUAUUACGCGUC | -4.81 ± 0.29 | -2.77 ± 0.24 |
| UUGGAGCAAUAUUACGCUGA | -1.98 ± 0.17 | -1.5 ± 0.16 |
| UUGGAGCAAUAUUACGCUGG | -1.62 ± 0.34 | -0.962 ± 0.32 |
| UUGGAGCAAUAUUACGGCCA | -2.23 ± 0.19 | -0.299 ± 0.15 |
| UUGGAGCAAUAUUACGGGCG | -3.99 ± 0.39 | -2.13 ± 0.31 |
| UUGGAGCAAUAUUACGGGGG | -2.12 ± 0.39 | -2.14 ± 0.5 |
| UUGGAGCAAUAUUACGGGUA | – | -2.02 ± 0.23 |
| UUGGAGCAAUAUUACGUCCA | -2.2 ± 0.2 | -1.74 ± 0.23 |
| UUGGAGCAAUAUUACGUGAC | -2.9 ± 0.41 | -0.119 ± 0.45 |
| UUGGAGCAAUAUUACGUUUG | -4.04 ± 0.25 | -2.92 ± 0.28 |
| UUGUAGCAAUAUUACGAGCU | -1.88 ± 0.22 | -0.4 ± 0.2 |
| UUGUAGCAAUAUUACGAGUG | -1.69 ± 0.14 | -0.408 ± 0.12 |

| Sequence | self-splicing fitness (ln) (30 °C) | self-splicing fitness (ln) (37 °C) |
| --- | --- | --- |
| UUGUAGCAAUAUUACGAUGC | – | -1.92 ± 0.43 |
| UUGUAGCAAUAUUACGCAAG | -1.29 ± 0.17 | -0.849 ± 0.2 |
| UUGUAGCAAUAUUACGCGAU | -3.54 ± 0.26 | -2.51 ± 0.25 |
| UUGUAGCAAUAUUACGCGCG | -1.25 ± 0.12 | -0.356 ± 0.18 |
| UUGUAGCAAUAUUACGCGCU | -2.05 ± 0.16 | -0.976 ± 0.11 |
| UUGUAGCAAUAUUACGCUCU | -1.21 ± 0.2 | -1.29 ± 0.15 |
| UUGUAGCAAUAUUACGCUGU | -3.02 ± 0.35 | -2.49 ± 0.27 |
| UUGUAGCAAUAUUACGGCUC | -1.79 ± 0.31 | 0.26 ± 0.24 |
| UUGUAGCAAUAUUACGGGAA | -2.13 ± 0.17 | -1.32 ± 0.16 |
| UUGUAGCAAUAUUACGGGAU | -4.01 ± 0.29 | -2.78 ± 0.26 |
| UUGUAGCAAUAUUACGGGUC | -3.03 ± 0.22 | -2.83 ± 0.4 |
| UUGUAGCAAUAUUACGUAGG | -2.12 ± 0.15 | -1.04 ± 0.23 |
| UUGUAGCAAUAUUACGUAUC | -4.12 ± 0.31 | -3.03 ± 0.31 |
| UUGUAGCAAUAUUACGUAUU | -3.29 ± 0.32 | -2.45 ± 0.3 |
| UUGUAGCAAUAUUACGUCAC | -2.56 ± 0.39 | – |
| UUGUAGCAAUAUUACGUCAU | -2.87 ± 0.18 | -1.63 ± 0.13 |
| UUGUAGCAAUAUUACGUCGG | -1.21 ± 0.094 | -0.478 ± 0.093 |
| UUGUAGCAAUAUUACGUGAC | -2.34 ± 0.26 | -1.86 ± 0.33 |
| UUGUAGCAAUAUUACGUGUA | -1.34 ± 0.12 | -1.12 ± 0.15 |
| UUGUAGCAAUAUUACGUGUU | -2.7 ± 0.25 | -2.5 ± 0.24 |

— the supplement of paper PMC7877785
